Common to all, as to assay: cell-based or functional assay
For experiment [1], the target named is hGLP-1R (Homo sapiens, UniProt P43220).
Experiment [2] has as its target T1, human GIP receptor (human) (UniProt P48546).
T1 sequence (looked up): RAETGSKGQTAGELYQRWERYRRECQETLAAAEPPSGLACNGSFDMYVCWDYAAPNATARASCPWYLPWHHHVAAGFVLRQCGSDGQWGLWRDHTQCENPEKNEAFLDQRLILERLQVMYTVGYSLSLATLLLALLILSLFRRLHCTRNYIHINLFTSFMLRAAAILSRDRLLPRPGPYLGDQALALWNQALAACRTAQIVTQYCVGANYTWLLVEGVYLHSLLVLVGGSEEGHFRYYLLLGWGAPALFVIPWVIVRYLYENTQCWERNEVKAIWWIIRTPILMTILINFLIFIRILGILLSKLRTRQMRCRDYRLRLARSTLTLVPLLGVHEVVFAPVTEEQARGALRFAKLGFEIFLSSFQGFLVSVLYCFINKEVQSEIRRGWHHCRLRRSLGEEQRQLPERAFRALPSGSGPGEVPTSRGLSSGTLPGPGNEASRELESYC

Experiment [3] has as its target human glucagon receptor (human) (UniProt P47871).
Experiment [4] has as its target human GLP-1R (SNAP-GLP-1R expressed in HEK293 cells) (human) (UniProt P43220).

Chain of hGLP-1R (P43220 24-463): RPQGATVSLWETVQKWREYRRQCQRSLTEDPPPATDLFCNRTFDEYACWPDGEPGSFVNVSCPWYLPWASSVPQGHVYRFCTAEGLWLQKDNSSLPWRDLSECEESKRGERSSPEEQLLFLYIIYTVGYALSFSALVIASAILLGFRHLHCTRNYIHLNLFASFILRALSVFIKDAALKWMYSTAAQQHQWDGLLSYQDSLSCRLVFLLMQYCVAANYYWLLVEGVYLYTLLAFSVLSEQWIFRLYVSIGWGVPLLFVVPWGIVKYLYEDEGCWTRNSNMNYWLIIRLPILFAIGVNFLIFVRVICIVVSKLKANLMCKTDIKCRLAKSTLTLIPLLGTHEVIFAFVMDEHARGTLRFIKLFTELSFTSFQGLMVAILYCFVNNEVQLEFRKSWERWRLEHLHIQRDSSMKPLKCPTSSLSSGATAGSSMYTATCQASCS
Chain of human GLP-1R (SNAP-GLP-1R expressed in HEK293 cells) (human) (P43220 24-463): as above
Chain of human glucagon receptor (human) (P47871 26-477): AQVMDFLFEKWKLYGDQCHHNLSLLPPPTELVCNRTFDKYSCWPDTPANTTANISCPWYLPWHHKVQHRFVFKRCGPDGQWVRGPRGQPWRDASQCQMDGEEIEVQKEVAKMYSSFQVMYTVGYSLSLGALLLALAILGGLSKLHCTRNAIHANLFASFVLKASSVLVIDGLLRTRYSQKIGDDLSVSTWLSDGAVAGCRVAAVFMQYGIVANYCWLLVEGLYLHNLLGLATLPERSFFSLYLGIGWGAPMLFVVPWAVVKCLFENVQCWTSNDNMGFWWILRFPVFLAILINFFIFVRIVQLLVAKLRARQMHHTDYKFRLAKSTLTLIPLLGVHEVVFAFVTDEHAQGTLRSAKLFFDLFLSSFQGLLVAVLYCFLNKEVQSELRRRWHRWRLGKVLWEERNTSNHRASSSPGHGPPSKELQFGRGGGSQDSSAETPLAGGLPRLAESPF

B1: Example 129 (peptide)
chain: YXQGTFTSDFSXXLDKKAQXAFIEYLLEAGPSSGAPPPSGE
modifications: synthetic construct; SITE 2: note = 2-Aminoisobutyric Acid; SITE 12: note = L-ornithine; SITE 13: note = alpha-methyl-leucine; SITE 17: note = Lysine is chemically modified through conjugation of the epsilon-amino group of the Lysine side chain with (2-[2-(2-Amino-ethoxy)-ethoxy]-acetyl)-(gamma-Glu)
As to B1, in experiment [1], the Relative cAMP EC50 amounted to 1.87 nM and the cAMP Rel EC50, nM (in the presence of 1% HSA) worked out at 284 nM. Besides, in experiment [2], the Relative cAMP EC50 amounted to 0.134 nM and the cAMP Rel EC50, nM (in the presence of 1% HSA) amounted to 24.3 nM. Further, in experiment [3], the Relative cAMP EC50 was found to be 2.01 nM and the cAMP Rel EC50, nM (in the presence of 1% HSA) amounted to 510 nM. In experiment [4], the GLP1R Internalization EC50 is 22.5 nM and the Internalization % TOP turned out to be 40.6%.

B2: Example 158 (peptide)
chain: YXQGTFTSDFSXXLDKKAQXAFIEYLLEGGPSSGAPPPGGT
modifications: Lys acylated AEEA-γGlu-C18 diacid; non-natural residues; C-terminal amide; synthetic construct; SITE 2: note = 2-Aminoisobutyric Acid; SITE 12: note = L-ornithine; SITE 13: note = …; SITE 17: note = Lysine is chemically modified through conjugation of the epsilon-amino group of the Lysine side chain with (2-[2-(2-Amino-ethoxy)-ethoxy]-acetyl)-(gamma-Glu)
As for B2, the Relative cAMP EC50, nM (0.1% casein) turned out to be 2.49 nM in experiment [1], 0.245 nM in experiment [2] and 3.72 nM in experiment [3]. Besides, the cAMP Rel EC50, nM (1% HSA) in experiment [1] amounted to 184 nM; in experiment [2] it was 24.7 nM; in experiment [3], 325 nM. The molecule further registered a GLP1R Internalization EC50 in experiment [4] of 104 nM. In addition, in experiment [4], the Internalization % TOP turned out to be 52.4%.

B3: Example 151 (peptide)
chain: YXQGTFTSDFSQXLDKKAQXAFIEYLLEXGPSSGAPPPSGS
modifications: Lys acylated with AEEA-γGlu-C18 diacid; non-natural residues; C-amide; synthetic construct; SITE 2: note = 2-Aminoisobutyric Acid; SITE 13: note = alpha-methyl-leucine; SITE 17: note = Lysine is chemically modified through conjugation of the epsilon-amino group of the Lysine side chain with (2-[2-(2-Amino-ethoxy)-ethoxy]-acetyl)-(gamma-Glu)-CO-(CH2) 16-CO2H; SITE 20: n
In experiment [1], B3 came in with a Relative cAMP EC50, nM (0.1% casein) of 1.6 nM and a cAMP Rel EC50, nM (1% HSA) of 384 nM. Besides, in experiment [2], the Relative cAMP EC50, nM (0.1% casein) amounted to 0.0784 nM and the cAMP Rel EC50, nM (1% HSA) came to 14.9 nM. Moreover, in experiment [3], the Relative cAMP EC50, nM (0.1% casein) turned out to be 3.5 nM and the cAMP Rel EC50, nM (1% HSA) is 1420 nM. In experiment [4], this molecule showed a GLP1R Internalization EC50 of 77.8 nM and an Internalization % TOP of 55%.

B4: Example 162 (peptide)
chain: YXQGTFTSDFSXXLDKKAQXAFIEYLLEGGHSSGAPPPGGS
modifications: Aib, Orn, αMeL; acylated Lys; C-terminal amide; synthetic construct; SITE 2: note = 2-Aminoisobutyric Acid; SITE 12: note = L-ornithine; SITE 13: note = alpha-methyl-leucine; SITE 17: note = Lysine is chemically modified through conjugation of the epsilon-amino group of the Lysine side chain with (2-[2-(2-Amino-ethoxy)-ethoxy]-acetyl)-(gamma-Glu)
Consider B4, for which the Relative cAMP EC50, nM (0.1% casein) in experiment [1] turned out to be 4.72 nM; in experiment [2], 0.222 nM; in experiment [3], 4.72 nM. Moreover, the cAMP Rel EC50, nM (1% HSA) in experiment [1] came to 786 nM; in experiment [2] it was 37.5 nM; in experiment [3] it was 558 nM. Moreover, the GLP1R Internalization EC50 in experiment [4] worked out at 48.8 nM. The Internalization % TOP in experiment [4] was determined as 44.8%.

B5: Example 157 (peptide)
chain: YXQGTFTSDFSXXLDKKAQXAFIEYLLEAGPSSGEPPPSGQ
modifications: Aib, Orn, alpha-methyl-Leu, D-Ala, lipidated Lys, amide; synthetic construct; SITE 2: note = 2-Aminoisobutyric Acid; SITE 12: note = L-ornithine; SITE 13: note = alpha-methyl-leucine; SITE 17: note = Lysine is chemically modified through conjugation of the epsilon-amino group of the Lysine side chain with (2-[2-(2-Amino-ethoxy)-ethoxy]-acetyl)2-(gamma-Glu)
Regarding B5, in experiment [1], the Relative cAMP EC50, nM (0.1% casein) was 3.04 nM and the cAMP Rel EC50, nM (1% HSA) was 496 nM. Besides, in experiment [2], the Relative cAMP EC50, nM (0.1% casein) turned out to be 0.183 nM and the cAMP Rel EC50, nM (1% HSA) came to 22.2 nM. In experiment [3], this molecule returned a Relative cAMP EC50, nM (0.1% casein) of 4.16 nM and a cAMP Rel EC50, nM (1% HSA) of 838 nM. In experiment [4], this molecule displayed a GLP1R Internalization EC50 of 60.3 nM and an Internalization % TOP of 53.3%.

B6: Example 143 (peptide)
chain: YXQGTFTSDFSRXLDKKAQXAFIEYLLEGGPSSGAPPPSGS
modifications: synthetic construct; SITE 2: note = 2-Aminoisobutyric Acid; SITE 13: note = alpha-methyl-leucine; SITE 17: note = Lysine is chemically modified through conjugation of the epsilon-amino group of the Lysine side chain with (2-[2-(2-Amino-ethoxy)-ethoxy]-acetyl)-(gamma-Glu)-CO-(CH2) 16-CO2H; SITE 20: n
Take B6: in experiment [1], the Relative cAMP EC50 was 2.44 nM and the cAMP Rel EC50, nM (in the presence of 1% HSA) stood at 594 nM. Moreover, in experiment [2], the Relative cAMP EC50 turned out to be 0.211 nM and the cAMP Rel EC50, nM (in the presence of 1% HSA) was 63.9 nM. Besides, in experiment [3], the Relative cAMP EC50 came out at 4.51 nM and the cAMP Rel EC50, nM (in the presence of 1% HSA) turned out to be 1690 nM. Besides, in experiment [4], the GLP1R Internalization EC50 was 337 nM and the Internalization % TOP came out at 43%.

B7: Example 148 (peptide)
chain: YXQGTFTSDFSRXLDKKAQXAFIEYLLEGGESSGAPPPSGS
modifications: Aib, αMeL; lysine acylated C18 diacid; C-terminal amide; synthetic construct; SITE 2: note = 2-Aminoisobutyric Acid; SITE 13: note = alpha-methyl-leucine; SITE 17: note = Lysine is chemically modified through conjugation of the epsilon-amino group of the Lysine side chain with (2-[2-(2-Amino-ethoxy)-ethoxy]-acetyl)-(gamma-Glu)-CO-(CH2) 16-CO2H; SITE 20: n
With B7, the Relative cAMP EC50, nM (0.1% casein) worked out at 2.82 nM in experiment [1], 0.352 nM in experiment [2] and 3.92 nM in experiment [3]. The cAMP Rel EC50, nM (1% HSA) in experiment [1] is 870 nM; in experiment [2], 74.2 nM; in experiment [3] it was 1330 nM. Further, the GLP1R Internalization EC50 in experiment [4] was 95.5 nM. The molecule further returned an Internalization % TOP in experiment [4] of 37.4%.

B8: Example 165 (peptide)
chain: YXQGTFTSDFSXXLDKKAQXAFIEYLLEXGPSSGAPPPSGT
modifications: non-natural residues, acylated Lys, C-terminal amide; synthetic construct; SITE 2: note = 2-Aminoisobutyric Acid; SITE 12: note = L-ornithine; SITE 13: note = alpha-methyl-leucine; SITE 17: note = Lysine is chemically modified through conjugation of the epsilon-amino group of the Lysine side chain with (2-[2-(2-Amino-ethoxy)-ethoxy]-acetyl)2-(gamma-Glu)
For the molecule B8, in experiment [1], the Relative cAMP EC50, nM (0.1% casein) came to 6.52 nM and the cAMP Rel EC50, nM (1% HSA) worked out at 808 nM. Further, in experiment [2], the Relative cAMP EC50, nM (0.1% casein) is 0.0956 nM and the cAMP Rel EC50, nM (1% HSA) was 18.6 nM. Moreover, in experiment [3], the Relative cAMP EC50, nM (0.1% casein) amounted to 4.47 nM and the cAMP Rel EC50, nM (1% HSA) is 1250 nM. In experiment [4], this molecule yielded a GLP1R Internalization EC50 of 57.5 nM and an Internalization % TOP of 44.5%.
